The source of these data is patent publication US9933424 (SEOUL NATIONAL UNIVERSITY HOSPITAL, dated 2018).

The target in test [1] is T1, adenylyl cyclase-associated protein 1 (CAP1), human, of THP-1 cells (human, UniProt Q01518 2-475).
T1 construct: Endogenous full-length protein in THP-1 lysates or on THP-1 cells; also called human resistin receptor; 55 kDa protein
The test can be described thus: western blot of cell lysates probed with mFc-human resistin as primary antibody, anti-mFc-HRP detection.

In test [2] the target is T1, adenylyl cyclase-associated protein 1 …. As to the kind of experiment: conclusion of Example 4 (western blot, immunofluorescence, flow cytometry on THP-1 cells). (Immunoblotting shows a protein as a band on a membrane.)

T1 sequence (Q01518 2-475 limits assumed): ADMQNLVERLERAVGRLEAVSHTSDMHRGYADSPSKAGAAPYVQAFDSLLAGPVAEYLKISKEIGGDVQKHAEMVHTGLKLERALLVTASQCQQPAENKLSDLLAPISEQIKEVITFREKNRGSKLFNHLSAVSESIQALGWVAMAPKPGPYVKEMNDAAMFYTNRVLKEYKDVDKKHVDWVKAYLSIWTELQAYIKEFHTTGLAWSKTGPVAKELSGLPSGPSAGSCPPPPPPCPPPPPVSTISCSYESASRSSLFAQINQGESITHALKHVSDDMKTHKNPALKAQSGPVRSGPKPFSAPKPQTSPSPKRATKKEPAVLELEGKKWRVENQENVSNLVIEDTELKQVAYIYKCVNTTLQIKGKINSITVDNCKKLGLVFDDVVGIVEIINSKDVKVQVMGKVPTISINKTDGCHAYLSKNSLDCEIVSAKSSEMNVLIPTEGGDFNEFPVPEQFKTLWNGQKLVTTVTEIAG

B1: mFc-human resistin fusion protein (mouse Fc region of immunoglobulin fused to the N-terminus of human resistin) (Fc fusion, UniProt Q9HD89 19-108, looked up)
chain: KTLCSMEEAINERIQEVAGSLIFRAISSIGLECQSVTSRGDLATCPRGFAVTGCTCGSACGSWDVRAETTCHCQCAGMDWTGARCCRVQP
notes: Expressed in HEK293-F cells from pcDNA3.1 and purified on mFc-specific beads; also called mFc-human resistin protein; mFc human resistin recombinant protein; not shown: mouse immunoglobulin Fc region (mFc); prot
Take B1: the binding result in test [1] was “binds”.

B2: recombinant human resistin protein (ligand, UniProt Q9HD89 19-108, looked up)
chain: KTLCSMEEAINERIQEVAGSLIFRAISSIGLECQSVTSRGDLATCPRGFAVTGCTCGSACGSWDVRAETTCHCQCAGMDWTGARCCRVQP
notes: also called rhResistin; human recombinant resistin
As for B2, the binding result in test [2] is given as “binds”.
